Residue numbers refer to the chain shown, from its start.
Tests used:
Conditions in all cases: protein: recombinant; tags: C-terminal poly-His (pET21); label: 5' 32P; single strand
PhrB = biological target: T1, PhrB (Agrobacterium fabrum, UniProt A9CH39 1-507); assay: EMSA; reduced FAD, darkness; EMSA in repair buffer (buffer 1: 50 mM Tris-HCl pH 7.0, 1 mM EDTA, 100 mM NaCl, 5% glycerol, 20 mM DTT; or buffer 2: pH 7.5, 10 mM DTT; which one not stated), 28 nM DNA, 10% TBE-PAGE at 4 C in darkness
T1 sequence: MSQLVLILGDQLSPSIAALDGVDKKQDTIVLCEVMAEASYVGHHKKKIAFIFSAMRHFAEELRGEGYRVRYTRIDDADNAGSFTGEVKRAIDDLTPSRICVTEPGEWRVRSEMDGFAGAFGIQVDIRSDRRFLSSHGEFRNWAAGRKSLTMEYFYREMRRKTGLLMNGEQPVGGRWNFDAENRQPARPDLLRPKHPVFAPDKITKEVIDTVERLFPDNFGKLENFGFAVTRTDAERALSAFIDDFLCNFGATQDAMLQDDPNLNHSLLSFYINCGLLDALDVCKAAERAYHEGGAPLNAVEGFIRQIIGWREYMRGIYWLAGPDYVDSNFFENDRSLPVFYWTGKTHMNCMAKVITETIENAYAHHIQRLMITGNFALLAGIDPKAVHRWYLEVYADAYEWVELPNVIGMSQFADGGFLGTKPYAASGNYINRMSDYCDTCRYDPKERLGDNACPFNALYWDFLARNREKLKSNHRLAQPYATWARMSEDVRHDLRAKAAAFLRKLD

PhrB Y424F = biological target: T2, PhrB Y424F (Agrobacterium fabrum, UniProt A9CH39 1-507, Y424F); assay: EMSA; reduced FAD, darkness; […] (buffer 1: 50 mM Tris-HCl pH 7.0, 1 mM EDTA, 100 mM NaCl, 5% glycerol, 20 mM DTT); or buffer 2: pH 7.5, 10 mM DTT; […]
T2 sequence: T1 sequence with Y424F

PhrB Y430F = biological target: T3, PhrB Y430F (Agrobacterium fabrum, UniProt A9CH39 1-507, Y430F); assay: as above
T3 sequence: T1 sequence with Y430F

PhrB Y460F = biological target: T4, PhrB Y460F (Agrobacterium fabrum, UniProt A9CH39 1-507, Y460F); assay: as above
T4 sequence: T1 sequence with Y460F

Binder | Kd (PhrB) [µM] | Kd (PhrB Y424F) [µM] | Kd (PhrB Y430F) [µM] | Kd (PhrB Y460F) [µM]
CATAGGTTGGCATA (ssDNA, (6-4) photoproduct at T7-T8 (the only TT; 254 nm UV, HPLC purified)) [EMSA_1 (6-4)TT photoproduct] | 0.013 ± 0.002 | 18 ± 2 | 0.027 ± 0.003 | 0.025 ± 0.003
CATAGGTTGGCATA (ssDNA) [EMSA_1 undamaged] | 25 ± 3 | 28 ± 3 | 27 ± 2 | 25 ± 3
